Test results taken from US20250304916A1, “METHODS AND COMPOSITIONS FOR GENERATING VASCULAR LEPTOMENINGEAL CELLS” (Trailhead Biosystems Inc., priority 2024, published 2025).

Test system: MBP expression
Assay: HD-DoE 8-factor model (stage 4), optimized for maximum expression of MBP
Assay type: cell-based, human
Settings: model optimized for MBP at 274; FIG. 6

B1: NT-3: neurotrophin-3, a Trk C pathway agonist (protein, UniProt P20783 139-257, looked up)
Neurotrophin-3: YAEHKSHRGEYSVCDSESLWVTDKSSAIDIRGHQVTVLGEIKTGNSPVKQYFYETRCKEARPVKNGCRGIDDKHWNSQCKTSQTYVRALTSENNKLVGWRWIRIDTSCVCALSRKIGRT
factor contribution, positive impact on MBP expression: 12.1
